Residue numbers refer to the chain shown, from its start. In names and notes the source's numbering stands.
B1: mouse MG53 S255A mutant (protein)
chain: MSAAPGLLRQELSCPLCLQLFDAPVTAECGHSFCRACLIRVAGEPAADGTVACPCCQAPTRPQALSTNLQLSRLVEGLAQVPQGHCEEHLDPLSIYCEQDRTLVCGVCASLGSHRGHRLLPAAEAQARLKTQLPQQKMQLQEACMRKEKTVAVLEHQLVEVEETVRQFRGAVGEQLGKMRMFLAALESSLDREAERVRGDAGVALRRELSSLNSYLEQLRQMEKVLEEVADKPQTEFLMKFCLVTSRLQKILSEAPPPARLDIQLPVISDDFKFQVWKKMFRALMPALEELTFDPSSAHPSLVVSSSGRRVECSDQKAPPAGEDTRQFDKAVAVVAQQLLSQGEHYWEVEVGDKPRWALGVMAADASRRGRLHAVPSQGLWLLGLRDGKILEAHVEAKEPRALRTPERPPARIGLYLSFADGVLAFYDASNPDVLTPIFSFHERLPGPVYPIFDVCWHDKGKNAQPLLLVGPEQEQA
B2: mouse wild-type MG53 (protein)
chain: B1 chain with A255S
B3: human wild-type MG53 (protein)
chain: MSAAPGLLHQELSCPLCLQLFDAPVTAECGHSFCRACLGRVAGEPAADGTVLCPCCQAPTRPQALSTNLQLARLVEGLAQVPQGHCEEHLDPLSIYCEQDRALVCGVCASLGSHRGHRLLPAAEAHARLKTQLPQQKLQLQEACMRKEKSVAVLEHQLVEVEETVRQFRGAVGEQLGKMRVFLAALEGSLDREAERVRGEAGVALRRELGSLNSYLEQLRQMEKVLEEVADKPQTEFLMKYCLVTSRLQKILAESPPPARLDIQLPIISDDFKFQVWRKMFRALMPALEELTFDPSSAHPSLVVSSSGRRVECSEQKAPPAGEDPRQFDKAVAVVAHQQLSEGEHYWEVDVGDKPRWALGVIAAEAPRRGRLHAVPSQGLWLLGLREGKILEAHVEAKEPRALRSPERRPTRIGLYLSFGDGVLSFYDASDADALVPLFAFHERLPRPVYPFFDVCWHDKGKNAQPLLLVGPEGAEA
B4: human MG53 S255A mutant (protein)
chain: B3 chain with S255A

How the values were obtained:
[1] = molecular target: IRS1 (insulin receptor substrate-1), species not stated
Sequence of IRS1 (insulin receptor substrate-1), species not stated (P35568 whole entry): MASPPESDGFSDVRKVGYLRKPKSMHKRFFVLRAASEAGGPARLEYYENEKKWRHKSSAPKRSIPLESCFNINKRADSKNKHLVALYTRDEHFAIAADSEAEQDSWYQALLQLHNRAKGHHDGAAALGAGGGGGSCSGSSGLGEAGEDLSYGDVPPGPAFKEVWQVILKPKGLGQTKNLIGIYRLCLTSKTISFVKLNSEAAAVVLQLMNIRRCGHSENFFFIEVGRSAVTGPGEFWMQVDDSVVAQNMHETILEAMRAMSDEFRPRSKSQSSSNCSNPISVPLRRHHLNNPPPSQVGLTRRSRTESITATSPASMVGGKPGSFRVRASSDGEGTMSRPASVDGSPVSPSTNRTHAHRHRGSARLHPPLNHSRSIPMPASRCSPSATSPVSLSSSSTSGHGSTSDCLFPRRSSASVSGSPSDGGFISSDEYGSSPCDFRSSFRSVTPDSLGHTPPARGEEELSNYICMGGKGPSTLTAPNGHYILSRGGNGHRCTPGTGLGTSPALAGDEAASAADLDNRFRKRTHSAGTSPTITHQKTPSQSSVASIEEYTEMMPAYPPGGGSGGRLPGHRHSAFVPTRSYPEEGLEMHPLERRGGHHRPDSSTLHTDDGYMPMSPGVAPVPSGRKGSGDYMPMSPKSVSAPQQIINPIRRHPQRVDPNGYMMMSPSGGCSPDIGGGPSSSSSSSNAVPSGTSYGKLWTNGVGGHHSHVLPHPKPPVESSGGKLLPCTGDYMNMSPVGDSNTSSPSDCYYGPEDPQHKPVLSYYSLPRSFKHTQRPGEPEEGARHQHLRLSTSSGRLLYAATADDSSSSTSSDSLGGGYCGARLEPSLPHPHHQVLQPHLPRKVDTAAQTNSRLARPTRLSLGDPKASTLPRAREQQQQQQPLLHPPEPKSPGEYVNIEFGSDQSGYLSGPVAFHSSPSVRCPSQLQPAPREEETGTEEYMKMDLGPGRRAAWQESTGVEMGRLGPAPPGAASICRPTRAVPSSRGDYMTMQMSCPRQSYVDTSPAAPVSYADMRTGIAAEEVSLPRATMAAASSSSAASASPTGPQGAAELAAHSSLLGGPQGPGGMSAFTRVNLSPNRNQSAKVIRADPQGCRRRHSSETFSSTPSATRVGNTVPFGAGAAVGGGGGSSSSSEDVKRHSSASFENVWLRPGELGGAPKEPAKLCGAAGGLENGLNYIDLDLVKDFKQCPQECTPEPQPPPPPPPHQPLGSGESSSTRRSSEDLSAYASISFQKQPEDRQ

Protein | degradation of IRβ, Western Blot, HEK293T co-expression (FIG. 16B) (insulin receptor IR) | degradation of precursor protein of IRβ, HEK293T co-expression (insulin receptor IR) | other results
B1 | mouse MG53-D-RING truncated mutant and mouse MG53 S255A mutant can hardly mediate IRβ degradation | mouse MG53-D-RING truncated mutant and mouse MG53 S255A mutant almost completely inhibited MG53-mediated degradation | degradation of IRS1, Western Blot, HEK293T co-expression (FIG. 16) [1]: mouse MG53 S255A mutant can only mediate about 40% degradation of IRS1
B2 | Mouse wild-type MG53 can mediate about 50% degradation of IRβ | mouse wild-type MG53 can mediate the degradation of precursor protein of IRβ | MG53-mediated substrate degradation, Western Blot, HEK293T co-expression (FIG. 16) [1]: human or mouse wild-type MG53 can significantly mediate IRS1 degradation
B3 |  |  | MG53-mediated substrate degradation, Western Blot, HEK293T co-expression (FIG. 17) [1]: human or mouse wild-type MG53 can significantly mediate IRS1 degradation
B4 |  |  | degradation of IRS1, Western Blot, HEK293T co-expression (FIG. 17) [1]: human MG53 S255A mutant can only mediate about 10% degradation of IRS1

From patent US20190153406
